Here are results for one molecule from PMC10576006, “Structural insights into the complex of oncogenic KRas4B^G12V and Rgl2, a RalA/B activator” (Life Science Alliance, 2023).

The assay concerns the target T1, human wildtype KRas4B 1-169 (C-terminal truncated) (human, UniProt P01116-2 1-169).
T1 construct: human wildtype KRas4B isoform, residues 1-169, lacking the C-terminal hyper-variable region; Loaded with GTP for BLI; also called KRas4B^WT; KRas (WT); source: E. coli DE3 Rosetta, purified (Ni-sepharose, TEV cleavage, SEC); not shown: His6, N-terminal, cleaved
In words: BLI; Octet R8; GST fusion (0.7 uM) immobilised on anti-GST biosensors; GTP-loaded KRas4B as analyte (200 nM-15 uM for Rgl2^RA, 20 nM-5 uM for BRAF^RBD); GF buffer (20 mM Tris pH 7.65, 100 mM NaCl, 5 mM MgCl2, 1 mM TCEP); 20°C; double referencing; 1:1 binding model. The note with it: both partners purified. Background: Biolayer interferometry detects binding as a change in optical thickness at a sensor tip.

B1: GST-Rgl2^RA (Ras association domain of human Rgl2, residues 643-740, fused with GST) (domain or fragment, UniProt O15211 643-740, looked up)
chain: GPGASDCRIIRVQMELGEDGSVYKSILVTSQDKAPSVISRVLKKNNRDSAVASEYELVQLLPGERELTIPASANVFYAMDGASHDFLLRQRRRSSTAT
notes: human Rgl2, residues 643-740, holding the Ras-associating (RA) domain (648-735 in UniProt O15211); A TEV site lies between GST and Rgl2^RA (vector pLEICS2); source: E. coli DE3 Rosetta, purified (glutathione beads, SEC); not shown: GST, N-terminal, kept
Usually Kd stands for the constant that tells how readily two partners part at equilibrium. Low readings indicate tighter binding, high ones weaker binding. On to B1, for which the Kd is around 1480 nM.
